These results are taken from the supplement of paper PMC10567573.

B1: KCNG1 (parent)
chain: AVNLSVSTLPSLREEEEQVRAHAP
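Further: lentivirally expressed fusions sorted by FACS into six bins by GFP to DsRed ratio, PSI derived from sequencing read proportions per bin multiplied by bin number.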

In the data set the parent is B1. Put plainly: protein stability index of a GFP-peptide fusion (GPS, HEK-293T) (PSI 1-6); higher = more stable. As to conditions: c terminus: a fixed tail appended.
AVNLSVSTLPSLREEGEQVRAHAP [E16G]: the protein stability index was found to be 4.67.

For AVNLSVSTLPSLREEWEQVRAHAP [E16W], the protein stability index is 3.38. For the variant AVNLSVSTLPSLREECEQVRAHAP [E16C], the protein stability index is 4.26. As for AVNLSVSTLPSLREENEQVRAHAP [E16N], the protein stability index came out at 4.26. With AVNLSVSTLPSLREEREQVRAHAP [E16R], the protein stability index is 4.18. Then AVNLSVSTLPSLREEAEQVRAHAP [E16A], with 4.48. In the case of AVNLSVSTLPSLREELEQVRAHAP [E16L], the protein stability index came out at 3.82. The figure for AVNLSVSTLPSLREEKEQVRAHAP [E16K] is 4.46; for AVNLSVSTLPSLREEMEQVRAHAP [E16M] it is 3.56. With AVNLSVSTLPSLREEYEQVRAHAP [E16Y], the protein stability index is 3.63. With AVNLSVSTLPSLREEFEQVRAHAP [E16F], the protein stability index came to 3.59. AVNLSVSTLPSLREEDEQVRAHAP [E16D]: the protein stability index worked out at 5.26.

On to AVNLSVSTLPSLREEQEQVRAHAP [E16Q], for which the protein stability index stood at 4.27. For the variant AVNLSVSTLPSLREETEQVRAHAP [E16T], the protein stability index was found to be 4.12.

In the case of AVNLSVSTLPSLREEVEQVRAHAP [E16V], the protein stability index worked out at 4.32. Consider AVNLSVSTLPSLREEPEQVRAHAP [E16P], for which the protein stability index was determined as 3.96. On to AVNLSVSTLPSLREEIEQVRAHAP [E16I], for which the protein stability index was found to be 3.27. As to AVNLSVSTLPSLREEHEQVRAHAP [E16H], the protein stability index was determined as 4.49. On to AVNLSVSTLPSLREESEQVRAHAP [E16S], for which the protein stability index was 4.27.

For AVNLSVSTLPSLREKEEQVRAHAP [E15K], the protein stability index was 4.82. With AVNLSVSTLPSLRESEEQVRAHAP [E15S], the protein stability index turned out to be 4.8.

AVNLSVSTLPSLRENEEQVRAHAP [E15N]: the protein stability index was determined as 4.61. In the case of AVNLSVSTLPSLREYEEQVRAHAP [E15Y], the protein stability index came to 3.64. As to AVNLSVSTLPSLREPEEQVRAHAP [E15P], the protein stability index is 4.93. Turning to AVNLSVSTLPSLREREEQVRAHAP [E15R], the protein stability index came out at 4.76. In the case of AVNLSVSTLPSLREFEEQVRAHAP [E15F], the protein stability index was 3.52. In the case of AVNLSVSTLPSLRETEEQVRAHAP [E15T], the protein stability index worked out at 4.52. With AVNLSVSTLPSLREWEEQVRAHAP [E15W], the protein stability index was 3.52.

As for AVNLSVSTLPSLRELEEQVRAHAP [E15L], the protein stability index was found to be 3.42. As for AVNLSVSTLPSLREMEEQVRAHAP [E15M], the protein stability index came to 4.29. Take AVNLSVSTLPSLREIEEQVRAHAP [E15I]: the protein stability index was 3.92. With AVNLSVSTLPSLREGEEQVRAHAP [E15G], the protein stability index came out at 4.59. For the variant AVNLSVSTLPSLREQEEQVRAHAP [E15Q], the protein stability index was 4.79.

As for AVNLSVSTLPSLREVEEQVRAHAP [E15V], the protein stability index came to 4.06. Regarding AVNLSVSTLPSLREHEEQVRAHAP [E15H], the protein stability index was determined as 4.42. Take AVNLSVSTLPSLREEEEAVRAHAP [Q18A]: the protein stability index was found to be 4.75.

Take AVNLSVSTLPSLREEEEKVRAHAP [Q18K]: the protein stability index came out at 4.75. AVNLSVSTLPSLREEEEGVRAHAP [Q18G]: the protein stability index stood at 5.17. For AVNLSVSTLPSLREEEECVRAHAP [Q18C], the protein stability index is 4.98.

AVNLSVSTLPSLREEEEMVRAHAP [Q18M]: the protein stability index is 4.77. As for AVNLSVSTLPSLREEEEVVRAHAP [Q18V], the protein stability index turned out to be 4.55. Consider AVNLSVSTLPSLREEEETVRAHAP [Q18T], for which the protein stability index came to 4.99. As to AVNLSVSTLPSLREEEEFVRAHAP [Q18F], the protein stability index is 4.17.

As to AVNLSVSTLPSLREEEEEVRAHAP [Q18E], the protein stability index is 5.57. AVNLSVSTLPSLREEEESVRAHAP [Q18S]: the protein stability index came to 5.26. With AVNLSVSTLPSLREEEERVRAHAP [Q18R], the protein stability index was 4.55. Consider AVNLSVSTLPSLREEEENVRAHAP [Q18N], for which the protein stability index came out at 4.95. For the variant AVNLSVSTLPSLREEEEPVRAHAP [Q18P], the protein stability index turned out to be 5.04.

AVNLSVSTLPSLREEEEHVRAHAP [Q18H]: the protein stability index came out at 4.67. For AVNLSVSTLPSLREEEEWVRAHAP [Q18W], the protein stability index stood at 4.05. Then AVNLSVSTLPSLREEEEDVRAHAP [Q18D], with 5.2; and AVNLSVSTLPSLREEEEYVRAHAP [Q18Y], with 4.42. The figure for AVNLSVSTLPSLREEEELVRAHAP [Q18L] is 5; for AVNLSVSTLPSLREEEEIVRAHAP [Q18I] it is 4.82. Turning to AVNLSVSTLPSLREEEEQVAAHAP [R20A], the protein stability index came out at 5.56.

Consider AVNLSVSTLPSLREEEEQVCAHAP [R20C], for which the protein stability index stood at 4.79. For the variant AVNLSVSTLPSLREEELQVRAHAP [E17L], the protein stability index turned out to be 4.11. As for AVNLSVSTLPSLREEERQVRAHAP [E17R], the protein stability index was found to be 4.61.

Take AVNLSVSTLPSLREEEGQVRAHAP [E17G]: the protein stability index amounted to 4.64. Take AVNLSVSTLPSLREEEWQVRAHAP [E17W]: the protein stability index was 3.08. With AVNLSVSTLPSLREEETQVRAHAP [E17T], the protein stability index was 4.32. In the case of AVNLSVSTLPSLREEENQVRAHAP [E17N], the protein stability index is 4.73. Consider AVNLSVSTLPSLREEEPQVRAHAP [E17P], for which the protein stability index was determined as 4.71. AVNLSVSTLPSLREEEMQVRAHAP [E17M]: the protein stability index came to 4.46.

In the case of AVNLSVSTLPSLREEEHQVRAHAP [E17H], the protein stability index was determined as 4.43. Consider AVNLSVSTLPSLREEEFQVRAHAP [E17F], for which the protein stability index worked out at 3.23. The figure for AVNLSVSTLPSLREEEAQVRAHAP [E17A] is 4.67; for AVNLSVSTLPSLREEESQVRAHAP [E17S] it is 4.61; for AVNLSVSTLPSLREEEQQVRAHAP [E17Q] it is 4.69. Take AVNLSVSTLPSLREEEDQVRAHAP [E17D]: the protein stability index came out at 4.73. Turning to AVNLSVSTLPSLREEECQVRAHAP [E17C], the protein stability index was found to be 4.2. The figure for AVNLSVSTLPSLREEEKQVRAHAP [E17K] is 4.43. Then AVNLSVSTLPSLREEEIQVRAHAP [E17I], with 4.23. For the variant AVNLSVSTLPSLREEEYQVRAHAP [E17Y], the protein stability index is 3.6. AVNLSVSTLPSLREEEVQVRAHAP [E17V]: the protein stability index was found to be 4.38. The figure for AVNLSVSTLPSLREEEEQDRAHAP [V19D] is 5.33; for AVNLSVSTLPSLREEEEQNRAHAP [V19N] it is 5.09; for AVNLSVSTLPSLREEEEQLRAHAP [V19L] it is 5.14. For AVNLSVSTLPSLREEEEQPRAHAP [V19P], the protein stability index amounted to 5.36. On to AVNLSVSTLPSLREEEEQERAHAP [V19E], for which the protein stability index is 5.3. The figure for AVNLSVSTLPSLREEEEQTRAHAP [V19T] is 4.9; for AVNLSVSTLPSLREEEEQFRAHAP [V19F] it is 4.62; for AVNLSVSTLPSLREEEEQCRAHAP [V19C] it is 4.84.

Turning to AVNLSVSTLPSLREEEEQHRAHAP [V19H], the protein stability index is 5.08. For the variant AVNLSVSTLPSLREEEEQARAHAP [V19A], the protein stability index worked out at 4.98. AVNLSVSTLPSLREEEEQWRAHAP [V19W]: the protein stability index was 4.46.

AVNLSVSTLPSLREEEEQRRAHAP [V19R]: the protein stability index turned out to be 4.73. Take AVNLSVSTLPSLREEEEQIRAHAP [V19I]: the protein stability index turned out to be 5.15. Regarding AVNLSVSTLPSLREEEEQYRAHAP [V19Y], the protein stability index was found to be 4.71. Consider AVNLSVSTLPSLREEEEQMRAHAP [V19M], for which the protein stability index is 4.85. Take AVNLSVSTLPSLREEEEQSRAHAP [V19S]: the protein stability index is 5.33. On to AVNLSVSTLPSLREEEEQKRAHAP [V19K], for which the protein stability index turned out to be 5.07. As for AVNLSVSTLPSLREEEEQGRAHAP [V19G], the protein stability index amounted to 5.21. On to AVNLSVSTLPSLREEEEQQRAHAP [V19Q], for which the protein stability index was 5.24.
